Measurements from the supplement of paper PMC10567573.

B1: ADD1 (parent)
chain: LRHSFQKQQREKTRWLNSGRGDEA

Variants of: B1
Test: protein stability index of a GFP-peptide fusion (GPS, HEK-293T) (PSI 1-6); higher = more stable
Settings: c terminus: a fixed tail appended
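Note: lentivirally expressed fusions sorted by FACS into six bins by GFP to DsRed ratio, PSI derived from sequencing read proportions per bin multiplied by bin number.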

Row | Variant | protein stability index
1 | LRHSFQKQQREKTRWLNSGRMDEA [G21M] | 3.4
2 | LRHSFQKQQREKTRWLNSGRDDEA [G21D] | 4.42
3 | LRHSFQKQQREKTRWLNSGRRDEA [G21R] | 3.47
4 | LRHSFQKQQREKTRWLNSGREDEA [G21E] | 3.99
5 | LRHSFQKQQREKTRWLNSGRQDEA [G21Q] | 3.49
6 | LRHSFQKQQREKTRWLNSGRKDEA [G21K] | 3.84
7 | LRHSFQKQQREKTRWLNSGRNDEA [G21N] | 3.43
8 | LRHSFQKQQREKTRWLNSGRIDEA [G21I] | 3.42
9 | LRHSFQKQQREKTRWLNSGRPDEA [G21P] | 3.71
10 | LRHSFQKQQREKTRWLNSGRCDEA [G21C] | 3.21
11 | LRHSFQKQQREKTRWLNSGRHDEA [G21H] | 3.2
12 | LRHSFQKQQREKTRWLNSGRADEA [G21A] | 4
13 | LRHSFQKQQREKTRWLNSGRSDEA [G21S] | 3.63
14 | LRHSFQKQQREKTRWLNSGRLDEA [G21L] | 3.64
15 | LRHSFQKQQREKTRWLNSGRFDEA [G21F] | 3.39
16 | LRHSFQKQQREKTRWLNSGQGDEA [R20Q] | 3.95
17 | LRHSFQKQQREKTRWLNSGKGDEA [R20K] | 4.03
18 | LRHSFQKQQREKTRWLNSGMGDEA [R20M] | 3.78
19 | LRHSFQKQQREKTRWLNSGCGDEA [R20C] | 3.91
20 | LRHSFQKQQREKTRWLNSGSGDEA [R20S] | 4.12
21 | LRHSFQKQQREKTRWLNSGEGDEA [R20E] | 4.28
22 | LRHSFQKQQREKTRWLNSGLGDEA [R20L] | 2.24
23 | LRHSFQKQQREKTRWLNSGTGDEA [R20T] | 3.75
24 | LRHSFQKQQREKTRWLNSGDGDEA [R20D] | 4.88

Row | Variant | protein stability index
25 | LRHSFQKQQREKTRWLNSGIGDEA [R20I] | 3.54
26 | LRHSFQKQQREKTRWLNSGAGDEA [R20A] | 3.84
27 | LRHSFQKQQREKTRWLNSGWGDEA [R20W] | 3.26
28 | LRHSFQKQQREKTRWLNSGGGDEA [R20G] | 3.71
29 | LRHSFQKQQREKTRWLNSGPGDEA [R20P] | 4.17
30 | LRHSFQKQQREKTRWLNSGYGDEA [R20Y] | 3.47
31 | LRHSFQKQQREKTRWLNSGVGDEA [R20V] | 3.88
32 | LRHSFQKQQREKTRWLNSGNGDEA [R20N] | 3.62
33 | LRHSFQKQQREKTRWLNSGFGDEA [R20F] | 3.21
34 | LRHSFQKQQREKTRWLNSGHGDEA [R20H] | 4.05
35 | LRHSFQKQQREKTRWTNSGRGDEA [L16T] | 3.57
36 | LRHSFQKQQREKTRWYNSGRGDEA [L16Y] | 3.42
37 | LRHSFQKQQREKTRWWNSGRGDEA [L16W] | 2.35
38 | LRHSFQKQQREKTRWLKSGRGDEA [N17K] | 3.65
39 | LRHSFQKQQREKTRWLPSGRGDEA [N17P] | 4.03
40 | LRHSFQKQQREKTRWLESGRGDEA [N17E] | 3.95
41 | LRHSFQKQQREKTRWLISGRGDEA [N17I] | 2.7
42 | LRHSFQKQQREKTRWLCSGRGDEA [N17C] | 3.15
43 | LRHSFQKQQREKTRWLDSGRGDEA [N17D] | 3.94
44 | LRHSFQKQQREKTRWLGSGRGDEA [N17G] | 3.82
45 | LRHSFQKQQREKTRWLMSGRGDEA [N17M] | 3.05
46 | LRHSFQKQQREKTRWLQSGRGDEA [N17Q] | 3.83
47 | LRHSFQKQQREKTRWLSSGRGDEA [N17S] | 3.88
48 | LRHSFQKQQREKTRWLWSGRGDEA [N17W] | 2.59

Row | Variant | protein stability index
49 | LRHSFQKQQREKTRWLASGRGDEA [N17A] | 3.81
50 | LRHSFQKQQREKTRWLFSGRGDEA [N17F] | 3.14
51 | LRHSFQKQQREKTRWLRSGRGDEA [N17R] | 2.49
52 | LRHSFQKQQREKTRWLLSGRGDEA [N17L] | 3.05
53 | LRHSFQKQQREKTRWLHSGRGDEA [N17H] | 2.54
54 | LRHSFQKQQREKTRWLTSGRGDEA [N17T] | 3.4
55 | LRHSFQKQQREKTRWLYSGRGDEA [N17Y] | 2.91
56 | LRHSFQKQQREKTRWLVSGRGDEA [N17V] | 4.03
57 | LRHSFQKQQREKTRWLNSCRGDEA [G19C] | 2.22
58 | LRHSFQKQQREKTRWLNSPRGDEA [G19P] | 3.65
59 | LRHSFQKQQREKTRWLNSLRGDEA [G19L] | 3.35
60 | LRHSFQKQQREKTRWLNSFRGDEA [G19F] | 2.83
61 | LRHSFQKQQREKTRWLNSIRGDEA [G19I] | 2.73
62 | LRHSFQKQQREKTRWLNSSRGDEA [G19S] | 3.81
63 | LRHSFQKQQREKTRWLNSARGDEA [G19A] | 3.82
64 | LRHSFQKQQREKTRWLNSERGDEA [G19E] | 4.29
65 | LRHSFQKQQREKTRWLNSNRGDEA [G19N] | 3.6
66 | LRHSFQKQQREKTRWLNSMRGDEA [G19M] | 3.57
67 | LRHSFQKQQREKTRWLNSRRGDEA [G19R] | 3.65
68 | LRHSFQKQQREKTRWLNSTRGDEA [G19T] | 3.37
69 | LRHSFQKQQREKTRWLNSVRGDEA [G19V] | 2.82
70 | LRHSFQKQQREKTRWLNSYRGDEA [G19Y] | 3
71 | LRHSFQKQQREKTRWLNSWRGDEA [G19W] | 2.63
72 | LRHSFQKQQREKTRWLNSKRGDEA [G19K] | 3.69

Row | Variant | protein stability index
73 | LRHSFQKQQREKTRWLNSQRGDEA [G19Q] | 3.7
74 | LRHSFQKQQREKTRWLNSHRGDEA [G19H] | 3.56
75 | LRHSFQKQQREKTRWLNSDRGDEA [G19D] | 4.6
76 | LRHSFQKQQREKTRWLNRGRGDEA [S18R] | 2.63
77 | LRHSFQKQQREKTRWLNYGRGDEA [S18Y] | 3.79
78 | LRHSFQKQQREKTRWLNLGRGDEA [S18L] | 3.39
79 | LRHSFQKQQREKTRWLNGGRGDEA [S18G] | 3.92
80 | LRHSFQKQQREKTRWLNVGRGDEA [S18V] | 3.53
81 | LRHSFQKQQREKTRWLNAGRGDEA [S18A] | 4.02
82 | LRHSFQKQQREKTRWLNQGRGDEA [S18Q] | 3.55
83 | LRHSFQKQQREKTRWLNIGRGDEA [S18I] | 3.85
84 | LRHSFQKQQREKTRWLNHGRGDEA [S18H] | 3.19
85 | LRHSFQKQQREKTRWLNFGRGDEA [S18F] | 2.87
86 | LRHSFQKQQREKTRWLNMGRGDEA [S18M] | 3.36
87 | LRHSFQKQQREKTRWLNKGRGDEA [S18K] | 3.67
88 | LRHSFQKQQREKTRWLNCGRGDEA [S18C] | 3.26
89 | LRHSFQKQQREKTRWLNEGRGDEA [S18E] | 4.28
90 | LRHSFQKQQREKTRWLNNGRGDEA [S18N] | 3.96
91 | LRHSFQKQQREKTRWLNDGRGDEA [S18D] | 3.11
92 | LRHSFQKQQREKTRWLNTGRGDEA [S18T] | 3.51
93 | LRHSFQKQQREKTRWLNWGRGDEA [S18W] | 3.51
94 | LRHSFQKQQREKTRWLNPGRGDEA [S18P] | 3.93
